Paper PMC2686087

How the values were obtained:
[1] = biological target: CaV2.2/α2δ-2 calcium channel coexpressed with β2a-SH3 (1–135) and β2a-GK (226–442) (UniProt Q05152)
[2] = biological target: CaV2.2/α2δ-2 calcium channel coexpressed with wild-type β2a (UniProt Q05152)
[3] = biological target: CaV2.2/α2δ-2 calcium channel coexpressed with β2a-ΔvHOOK (UniProt Q05152)
[4] = biological target: CaV2.2/α2δ-2 calcium channel coexpressed with wild-type β2a (UniProt Q05152); remark: listed apart in the source

Substance: Gβγ (from UniProt P62873 1-340; P59768 1-71) (complex)
- basal facilitation (P2/P1) of peak IBa at +10 mV in the absence of agonist [1]: 2.61
- time constant for the removal of tonic inhibition (τdissoc) at +120 mV [1]: 29.1 ms
- dissociation rate of Gβγ at +120 mV (from τdissoc) [2]: 46.9 s⁻¹
- time constant for rebinding of Gβγ at −100 mV (reinhibition after the prepulse) [2]: 248 ms
- dissociation rate of Gβγ at +120 mV (from τdissoc) [3]: 29.7 s⁻¹
- time constant for rebinding of Gβγ at −100 mV (reinhibition after the prepulse) [3]: 296 ms
- basal facilitation (P2/P1) ratio at +10 mV without agonist [4]: 1.43
